Earlier results on two substances are cited in publication PMC2846219.

In data set [1] the target is PCNA (Homo sapiens) (UniProt P12004).
Data set [2] shares this target. The source holds these as a separate data set.

Like-named read-outs stand apart in the source and are kept apart here.

Chain of UniProt P12004 (P12004 whole entry): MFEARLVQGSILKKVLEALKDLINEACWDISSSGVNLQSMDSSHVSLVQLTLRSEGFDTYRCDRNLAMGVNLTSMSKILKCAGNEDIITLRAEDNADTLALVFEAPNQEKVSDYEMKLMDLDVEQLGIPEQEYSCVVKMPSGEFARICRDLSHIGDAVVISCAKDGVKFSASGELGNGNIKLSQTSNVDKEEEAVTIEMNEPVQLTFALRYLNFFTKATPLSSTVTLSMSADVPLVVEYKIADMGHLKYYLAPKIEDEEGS

As usually defined, the Kd is the equilibrium constant for the complex coming apart. As to “DNA polymerase eta PIP peptide PIP peptide (from UniProt Q9Y253)”, the Kd with PCNA (Homo sapiens) [1] was 400 nM. Turning to “DNA polymerase iota PIP peptide PIP peptide (from UniProt Q9UNA4)”, the Kd with PCNA (Homo sapiens) [2] is 390 nM.
